The values that follow are results of earlier work, collected in article PMC7825312.

In this series the target is Cys38 (UniProt position 39, SFLKECPSGRI). Put plainly: UV-vis.

For the substance Recoverin (Bos taurus), the pKa (as a rule, the negative logarithm of the acid dissociation constant) is recorded as 7.6.
